The target of the test is T1, 재조합 인슐린 유사 성장인자-1 수용체 (IGF-1R, R&D system, 391-GR), extracellular domain Met1-Asn932 (human, UniProt P08069 31-932).
T1 construct: range 1-932; Bought recombinant protein; also called 재조합 IGF-1R; hIGF-1R
As to the kind of experiment: SPR (BiaCore T200), MKJP2 captured on anti-human IgG Fc CM5 chip, IGF-1R injected at 0.78-12.5 nM.

T1 sequence (P08069 31-932 limits assumed): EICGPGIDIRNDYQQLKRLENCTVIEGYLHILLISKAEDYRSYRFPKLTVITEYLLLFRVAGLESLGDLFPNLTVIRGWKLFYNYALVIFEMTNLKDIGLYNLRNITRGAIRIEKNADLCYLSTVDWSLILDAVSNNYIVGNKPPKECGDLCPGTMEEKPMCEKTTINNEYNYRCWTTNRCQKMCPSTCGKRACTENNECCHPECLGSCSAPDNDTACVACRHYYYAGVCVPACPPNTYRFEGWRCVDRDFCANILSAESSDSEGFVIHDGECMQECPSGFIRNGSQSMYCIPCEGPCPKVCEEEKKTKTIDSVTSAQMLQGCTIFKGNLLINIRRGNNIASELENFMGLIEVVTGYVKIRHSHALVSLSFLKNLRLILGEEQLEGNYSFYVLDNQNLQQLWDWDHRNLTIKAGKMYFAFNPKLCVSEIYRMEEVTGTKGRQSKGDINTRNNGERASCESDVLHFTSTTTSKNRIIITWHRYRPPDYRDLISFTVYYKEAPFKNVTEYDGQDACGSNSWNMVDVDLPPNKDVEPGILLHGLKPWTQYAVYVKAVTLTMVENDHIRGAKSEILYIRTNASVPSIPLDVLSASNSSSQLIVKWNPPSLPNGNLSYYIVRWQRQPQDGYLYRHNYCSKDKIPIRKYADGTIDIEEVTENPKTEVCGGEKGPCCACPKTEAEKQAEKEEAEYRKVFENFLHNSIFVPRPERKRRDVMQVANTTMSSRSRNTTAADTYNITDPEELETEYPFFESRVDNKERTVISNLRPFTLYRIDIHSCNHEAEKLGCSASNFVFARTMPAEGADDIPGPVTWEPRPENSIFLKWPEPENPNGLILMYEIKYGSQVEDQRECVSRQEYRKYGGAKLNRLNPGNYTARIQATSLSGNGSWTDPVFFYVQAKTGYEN

B1: 인간 단일클론항체 MKJP2 (전체 IgG) (antibody, V domains shown)
VH: EVQLLESGGGLAQPGGSLRLSCAASGFTFSGYAMSWVRQAPGKGLEWVSAISSDGGSTYYADSVKGRFTISRDNSKNTLYLQMNSLRAEDTAVYYCARDPWFSRWTAFDYWGQGTLVTVSS
VL: QSVLTQPPSASGTPGQRVTISCSGSSSNIGNNAVNWYQQLPGTAPKLLIYSNSKRPSGVPDRFSGSKSGTSASLAISGLRSEDEADYYCGTWDYSLSGYVFGGGTKLTVLG
notes: Variable regions were cloned into the vectors E-A12H-ID (heavy) and pEA12L-ID (light); also called MKJP2 항체; 항 IGF-1R 항체 MKJP2
Molecule B1 registered an equilibrium dissociation constant (Kd) of 0.173 nM.

The values above are taken from patent KR20140138533A (dated 2014).
